Measurements taken from the supplement of paper PMC9732359.
± gives the uncertainty stated by the source.

Assay: protein stability index of a GFP-peptide fusion (yeast GPS) (PSI 1-4); higher = more stable; sorted into four equal gates, so the index is relative within each strain
In short: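 For each peptide, the protein stability index sums the read frequency in every gate after multiplying it by the gate number. Read frequencies came from plasmids that were PCR-amplified from each gate and Illumina-sequenced, with reads assigned to strains by barcodes. The gates were four equal bins of GFP/Cherry fluorescence ratio applied to mid-log yeast in leucine-free medium carrying a pooled library of tiled 17-residue yeast protein peptides fused downstream of GFP on a Cherry-expressing plasmid.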

Sequence: REDMPFTAEGIVPDLII [RPB2]
- protein stability index (doa10∆): 2.49 ± 0.092
- protein stability index (pdr5∆): 3.42 ± 0.15
- protein stability index (san1∆): 3.1 ± 0.093
- protein stability index (ubr1∆): 2.79 ± 0.11

Sequence: VNDNPDIEAGDDDDNNE [DIS3]
- protein stability index (doa10∆): 3.46 ± 0.19
- protein stability index (pdr5∆): 3.47 ± 0.14
- protein stability index (san1∆): 2.73 ± 0.22
- protein stability index (ubr1∆): 3.33 ± 0.089

Sequence: VKIGKFIPHGLKRRQVI [SRB8]
- protein stability index (doa10∆): 2.48 ± 0.1
- protein stability index (pdr5∆): 2.23 ± 0.075
- protein stability index (san1∆): 3.11 ± 0.06
- protein stability index (ubr1∆): 1.95 ± 0.078

Sequence: LLERTREIHNEAESQLR [FAS2]
- protein stability index (doa10∆): 2.97 ± 0.12
- protein stability index (pdr5∆): 2 ± 0.087
- protein stability index (san1∆): 2.21 ± 0.22
- protein stability index (ubr1∆): 2.54 ± 0.08

Sequence: FGKKRLDLAGPLLAQLF [RPB2]
- protein stability index (doa10∆): 1.44 ± 0.19
- protein stability index (pdr5∆): 1.79 ± 0.16
- protein stability index (san1∆): 1.42 ± 0.15
- protein stability index (ubr1∆): 1.4 ± 0.18

Sequence: KILRDNIQGITKPAIRR [HHF1]
- protein stability index (doa10∆): 3.17 ± 0.083
- protein stability index (pdr5∆): 3.33 ± 0.077
- protein stability index (san1∆): 3.08 ± 0.055
- protein stability index (ubr1∆): 3.21 ± 0.058

Sequence: KNPRVTKEYLVQNLRSW [CSN9]
- protein stability index (pdr5∆): 3 ± 0.3
- protein stability index (san1∆): 3.16 ± 0.11
- protein stability index (ubr1∆): 3.36 ± 0.091

Sequence: SQKTKTIQSDLNLSLHK [SMC2]
- protein stability index (doa10∆): 2.35 ± 0.056
- protein stability index (pdr5∆): 2.3 ± 0.043
- protein stability index (san1∆): 2.19 ± 0.071
- protein stability index (ubr1∆): 2.67 ± 0.03

Sequence: EDHIFFKYIYELILAGA [YDL116W/NUP84]
- protein stability index (doa10∆): 1.74 ± 0.07
- protein stability index (pdr5∆): 1.98 ± 0.064
- protein stability index (san1∆): 1.69 ± 0.089
- protein stability index (ubr1∆): 1.66 ± 0.061

Sequence: SFLSGVKSLLSEEKIRD [SIR4]
- protein stability index (doa10∆): 3.01 ± 0.088
- protein stability index (pdr5∆): 3.11 ± 0.072
- protein stability index (san1∆): 2.92 ± 0.063
- protein stability index (ubr1∆): 2.92 ± 0.11

Sequence: SGSLFGSNNAQTSRGLF [YGL172W/NUP49]
- protein stability index (doa10∆): 3.03 ± 0.073
- protein stability index (pdr5∆): 3.01 ± 0.06
- protein stability index (san1∆): 2.95 ± 0.047
- protein stability index (ubr1∆): 2.84 ± 0.064

Sequence: LGAVAGLIPYPHHNQSP [RET1]
- protein stability index (doa10∆): 2.65 ± 0.094
- protein stability index (pdr5∆): 2.97 ± 0.071
- protein stability index (san1∆): 2.69 ± 0.055
- protein stability index (ubr1∆): 2.94 ± 0.065

Sequence: PKCHSRENVFFQSQQRR [RPB9]
- protein stability index (doa10∆): 3.14 ± 0.088
- protein stability index (pdr5∆): 2.65 ± 0.081
- protein stability index (san1∆): 2.22 ± 0.089
- protein stability index (ubr1∆): 2.65 ± 0.054

Sequence: KLASTLEKISSSNKDLE [SMC4]
- protein stability index (doa10∆): 3.09 ± 0.053
- protein stability index (pdr5∆): 2.68 ± 0.067
- protein stability index (san1∆): 2.96 ± 0.038
- protein stability index (ubr1∆): 2.82 ± 0.056

Sequence: SEHFDVNDNPDIEAGDD [DIS3]
- protein stability index (doa10∆): 2.81 ± 0.058
- protein stability index (pdr5∆): 2.93 ± 0.058
- protein stability index (san1∆): 2.72 ± 0.076
- protein stability index (ubr1∆): 3.08 ± 0.045

Sequence: KASTISRGAVSGQKAGL [RPL2A]
- protein stability index (doa10∆): 2.46 ± 0.044
- protein stability index (pdr5∆): 2.36 ± 0.055
- protein stability index (san1∆): 2.67 ± 0.055
- protein stability index (ubr1∆): 2.87 ± 0.046

Sequence: IGKDTFVTRKSRKRAKK [PRP8]
- protein stability index (doa10∆): 3.01 ± 0.092
- protein stability index (pdr5∆): 2.84 ± 0.096
- protein stability index (san1∆): 2.87 ± 0.078
- protein stability index (ubr1∆): 3.25 ± 0.049

Sequence: ESSKALADSLDRCVDPE [DIS3]
- protein stability index (doa10∆): 2.75 ± 0.084
- protein stability index (pdr5∆): 2.27 ± 0.076
- protein stability index (san1∆): 2.29 ± 0.21
- protein stability index (ubr1∆): 2.38 ± 0.19

Sequence: GTSTTHGSISPQEESVS [SIR3]
- protein stability index (doa10∆): 2.14 ± 0.043
- protein stability index (pdr5∆): 2.56 ± 0.045
- protein stability index (san1∆): 2.43 ± 0.053
- protein stability index (ubr1∆): 2.48 ± 0.033

Sequence: VKDEAFDDLLKPVYKGK [RET1]
- protein stability index (doa10∆): 3.35 ± 0.16
- protein stability index (pdr5∆): 3.32 ± 0.15
- protein stability index (san1∆): 3.3 ± 0.11
- protein stability index (ubr1∆): 3.12 ± 0.17

Sequence: SSSNGGGSAKPSLKFKP [RPC53]
- protein stability index (doa10∆): 2.61 ± 0.13
- protein stability index (pdr5∆): 3 ± 0.14
- protein stability index (san1∆): 2.74 ± 0.093
- protein stability index (ubr1∆): 3.34 ± 0.091

Sequence: WIVVLPWFWLLPLWHLL [POP1]
- protein stability index (doa10∆): 2.4 ± 0.092
- protein stability index (pdr5∆): 1.21 ± 0.057
- protein stability index (san1∆): 1.14 ± 0.13
- protein stability index (ubr1∆): 1.07 ± 0.046

Sequence: FTQPALTLMEKAAFEDL [FAS1]
- protein stability index (doa10∆): 2.74 ± 0.1
- protein stability index (pdr5∆): 2.33 ± 0.078
- protein stability index (san1∆): 2.77 ± 0.091
- protein stability index (ubr1∆): 2.9 ± 0.07

Sequence: NDLGKFIPNKQLNCVID [RPN7]
- protein stability index (doa10∆): 2.49 ± 0.13
- protein stability index (pdr5∆): 2.85 ± 0.19
- protein stability index (san1∆): 2.77 ± 0.17
- protein stability index (ubr1∆): 3.05 ± 0.19

Sequence: DGTSTEKTFLHLPCTIE [RPN8]
- protein stability index (doa10∆): 2.7 ± 0.1
- protein stability index (pdr5∆): 1.78 ± 0.055
- protein stability index (san1∆): 2.1 ± 0.065
- protein stability index (ubr1∆): 1.41 ± 0.044

Sequence: NGLIISWSNGKITSPIR [RRP42]
- protein stability index (doa10∆): 3.12 ± 0.19
- protein stability index (pdr5∆): 2.98 ± 0.14
- protein stability index (san1∆): 3.2 ± 0.082
- protein stability index (ubr1∆): 3.39 ± 0.12

Sequence: NQPHQSQTPSFNTNSSF [YOR098C/NUP1]
- protein stability index (doa10∆): 2.64 ± 0.042
- protein stability index (pdr5∆): 2.99 ± 0.034
- protein stability index (san1∆): 2.93 ± 0.036
- protein stability index (ubr1∆): 3.047 ± 0.03

Sequence: FSWGRPADSTYGAYNTQ [PRE4]
- protein stability index (doa10∆): 2.75 ± 0.081
- protein stability index (pdr5∆): 2.68 ± 0.064
- protein stability index (san1∆): 2.94 ± 0.059
- protein stability index (ubr1∆): 3.04 ± 0.047

Sequence: QNMQQSLQQMQHLQQLK [GAL11]
- protein stability index (doa10∆): 2.96 ± 0.095
- protein stability index (pdr5∆): 2.95 ± 0.07
- protein stability index (san1∆): 2.94 ± 0.074
- protein stability index (ubr1∆): 2.89 ± 0.098

Sequence: GNAPATPSSDQNPLPTR [SOH1]
- protein stability index (doa10∆): 3.44 ± 0.13
- protein stability index (pdr5∆): 2.98 ± 0.065
- protein stability index (san1∆): 2.63 ± 0.077
- protein stability index (ubr1∆): 3.17 ± 0.067

Sequence: ERYSDKYLKKRKIGISI [RPC31]
- protein stability index (doa10∆): 1.61 ± 0.11
- protein stability index (pdr5∆): 2.39 ± 0.23
- protein stability index (ubr1∆): 2.44 ± 0.21

Sequence: SIREQVHMYHKSLALLG [SNF5]
- protein stability index (doa10∆): 1.81 ± 0.041
- protein stability index (pdr5∆): 1.74 ± 0.041
- protein stability index (san1∆): 2.37 ± 0.095
- protein stability index (ubr1∆): 2.06 ± 0.045

Sequence: DGGKTLRACAANVDQIS [YMR129W/POM152]
- protein stability index (doa10∆): 2.15 ± 0.13
- protein stability index (pdr5∆): 2.94 ± 0.11
- protein stability index (san1∆): 2.94 ± 0.13
- protein stability index (ubr1∆): 2.37 ± 0.11

Sequence: DGLIAPGVRVSGEDVII [RPB2]
- protein stability index (doa10∆): 3.05 ± 0.12
- protein stability index (pdr5∆): 2.69 ± 0.085
- protein stability index (san1∆): 3.29 ± 0.16
- protein stability index (ubr1∆): 2.67 ± 0.095

Sequence: STAFVPTIEYVQCPTVI [ARP9]
- protein stability index (doa10∆): 1.68 ± 0.065
- protein stability index (pdr5∆): 1.97 ± 0.048
- protein stability index (san1∆): 1.71 ± 0.08
- protein stability index (ubr1∆): 1.88 ± 0.052

Sequence: MKRMVAQWERSKLSQEF [SNF12]
- protein stability index (doa10∆): 3.23 ± 0.22
- protein stability index (pdr5∆): 3.05 ± 0.15
- protein stability index (san1∆): 3.11 ± 0.23
- protein stability index (ubr1∆): 3.21 ± 0.087

Sequence: RVHANLQCISQINQGVP [SNF11]
- protein stability index (doa10∆): 1.49 ± 0.043
- protein stability index (pdr5∆): 1.42 ± 0.043
- protein stability index (san1∆): 1.47 ± 0.067
- protein stability index (ubr1∆): 1.89 ± 0.055

Sequence: LRPGQEISLKAHCILGI [RPC40]
- protein stability index (doa10∆): 2.12 ± 0.14
- protein stability index (pdr5∆): 2.49 ± 0.13
- protein stability index (san1∆): 2.14 ± 0.099
- protein stability index (ubr1∆): 1.82 ± 0.12

Sequence: QQPQTNTAPGLGNTVST [YGR119C/NUP57]
- protein stability index (doa10∆): 3.03 ± 0.097
- protein stability index (pdr5∆): 3.34 ± 0.1
- protein stability index (san1∆): 3.04 ± 0.073
- protein stability index (ubr1∆): 3.06 ± 0.058

Sequence: NAGTEKEKESKKDSKPA [YLR335W/NUP2]
- protein stability index (doa10∆): 3.31 ± 0.084
- protein stability index (pdr5∆): 3.15 ± 0.074
- protein stability index (san1∆): 3.54 ± 0.056
- protein stability index (ubr1∆): 3.42 ± 0.05

Sequence: SSLKESSPDTMKLTDLL [SNF12]
- protein stability index (doa10∆): 3.09 ± 0.088
- protein stability index (pdr5∆): 3.08 ± 0.083
- protein stability index (san1∆): 2.71 ± 0.098
- protein stability index (ubr1∆): 3.1 ± 0.076

Sequence: QDNHHITKVTENLFSKE [YMR129W/POM152]
- protein stability index (doa10∆): 2.86 ± 0.059
- protein stability index (pdr5∆): 2.8 ± 0.066
- protein stability index (san1∆): 2.99 ± 0.045
- protein stability index (ubr1∆): 3.1 ± 0.049

Sequence: NENKVIIELPNEKFEIE [SRB4]
- protein stability index (doa10∆): 2.89 ± 0.077
- protein stability index (pdr5∆): 2.86 ± 0.081
- protein stability index (san1∆): 2.94 ± 0.055
- protein stability index (ubr1∆): 2.8 ± 0.042

Sequence: ERKKSIGSQRGRRLSML [DSN1]
- protein stability index (doa10∆): 3.18 ± 0.11
- protein stability index (pdr5∆): 2.53 ± 0.087
- protein stability index (san1∆): 3.13 ± 0.098
- protein stability index (ubr1∆): 2.92 ± 0.093

Sequence: DDSSSDNDSLTDLESLS [SIR4]
- protein stability index (doa10∆): 3.15 ± 0.058
- protein stability index (pdr5∆): 3.28 ± 0.043
- protein stability index (san1∆): 3.09 ± 0.044
- protein stability index (ubr1∆): 2.95 ± 0.042
